Results published in the MegaScale stability set (Tsuboyama et al. 2023).

B1: HHH_rd2_0155 (parent)
chain: PPDDERKKAEKAARSGNEEKAREILERLGYSEDEARELAKRLR

Variants of: B1
Assay: folding stability dG (cDNA display proteolysis); higher = more stable
Conditions: PBS, room temperature

Folding stability dG [kcal/mol] of substitutions, site by site:
L25: F 2.35, D 0.2, E 0.37, P -0.039, W 1.64, R 0.127, K -0.071, V 0.267, H -0.026
E32: W 1.42, V 2, Y 1.94, P 2.48, R 1.96, H 1.97, S 2.08, N 1.51, Q 1.99
K11: W 2.14, S 1.97, E 2.5, L 2.35, V 2.19, A 2.43, D 2.38, Y 2.14
D3: R 1.75, G 1.98, M 2.02, I 1.95, C 2.41, A 1.91, E 2.14, W 2.1, K 1.73, F 1.79, T 1.95
P1: Y 2.24, I 2.12, Q 2.2, S 2.35, W 2.33, H 2.29, E 2.2, R 2.21
A12: F 2.47, I 1.61, D 0.919, K 1.01, M 2.11, P 0.925, E 2, V 1.49, G 1.03
A13: S 1.13, Q 0.906, R 0.884, P 0.95, T 1.15, M 1.35, F 1.5
R43: W 2.31, E 0.924, Q 1.45, M 2.09, N 1.44, T 1.5
E23: Y 1.68, W 1.83, P 0.763, N 1.52, I 1.93, M 2.03
E18: I 2.6, H 1.44, V 2.3, F 2.24, R 0.996, S 1.37, A 1.57
K40: T 1.63, H 2.39, W 2.08, A 2.06, D 1.31, Y 1.98, G 1.44, F 1.8, I 1.61
E19: Y 1.79, P 1.61, L 2.15, I 2.05, F 1.91, D 2.03, W 1.94, Q 2.05, T 2.05, K 2.18
D4: T 2.17, C 2.15, H 1.88, Q 2.04, N 1.9, M 1.97, E 2.26, V 2.06, R 1.98
K7: S 1.94, L 2.17, I 2.08, N 1.85, A 2.1, T 2.17, V 2.02, W 2.15, E 1.98
A9: T 1.05, F 1.27, Y 1.47, R 0.946, D 0.819, G 1.13, V 1.29
E37: Y 2.17, R 2.34, P -0.452, C 2.36, L 2.17, Q 2.1, M 2.16, N 1.82, K 2.1
E10: T 1.82, P 1.05, N 1.29, R 2.03, A 2.3, V 2.23, D 1.22
A39: F 1.52, V 2.33, I 2.75, M 1.75, W 1.01, T 1.21, L 2.36
E26: M 3.05, V 2.61, K 2.41, R 2.65, G 1.5, T 1.93, W 0.866, Q 2.39, I 2.65, N 1.22
R6: S 1.3, P 0.99, I 2.63, A 1.63, E 1.54, T 1.54, F 3.38, H 2.1
G29: T 0.143, F 0.708, V 0.455, L -0.221, E 0.491, Q 0.091, R 0.281, A 0.3
L42: D 0.37, R 0.996, K 0.832, Y 2.46, N 0.469, F 2.26, Q 0.824, M 2.39, V 0.97
R22: A 1.58, P 0.374, H 0.903, M 1.88, G 0.568, Q 1.41, D 0.179, Y 1.33, W 1.13, T 1.27
P2: C 2.29, Q 2.15, W 2.29, H 2.24, A 2.18, D 2.21, N 2.15
E34: T 1.34, M 1.59, N 1.21, C 1.92, Q 1.81, V 1.39, G 0.998
D33: R 1.79, Q 2.09, A 2.25, L 1.85, K 1.92, T 1.92, V 1.71
S31: K 1.35, W 0.564, H 1.02, R 1.07, N 1.66
S15: R 2.05, M 2.26, Y 1.55, K 1.59, G 1.86, V 1.55, A 2.26, W 1.83, E 2.53
Y30: I 1.06, G 0.222, Q 0.238, E 0.197, S 0.426, W 1.34
R27: P 0.534, I 1.28, T 1.47, E 1.1, W 1.44, K 2.14, Q 1.89, V 1.01, H 1.6, A 2.07
K8: N 1.99, D 1.86, W 1.97, Q 2.19, S 1.84
R36: N 1.14, S 1.27, P -0.165, D 0.859, Y 1.64, E 1.23, K 1.7, G 0.823
A21: T 1.08, L 1.81, G 0.961, M 1.46, H 0.916, I 1.68, R 0.974, V 1.27, S 1.23
L28: V 0.87, A 1.54, C 1.85, K 0.443, Q 0.844, G 0.647, W 1.47, S 0.685, Y 0.983, H 0.699
K20: E 2.11, I 1.9, A 2.1, V 2.05, Q 1.86, F 1.92, P 0.917
L38: I 2.04, G -0.173, A 0.925, W 1.49, Q 0.725, K 0.756, E 1.46, S 0.129
A35: V 0.99, P -0.246, I 1.42, N 0.635, S 1.25, R 0.564, E 0.141, F 0.989, Y 0.905
N17: G 1.08, Y 1.71, L 1.65, P 0.962, K 1.42, T 0.954, D 2.42, I 1.13, M 1.61, Q 1.81
R41: N 1.39, I 1.6, Y 1.73, A 1.56, C 1.92
I24: M 1.43, V 0.856, N 0.514, H 1.11, G 0.167, F 1.3, R 0.756
R14: Y 1.73, H 1.6, F 1.6, M 1.96, W 1.77
G16: A 1.15, P 0.825, N 1.23, F 1.53
E5: Q 1.91, D 2.01, M 2.33, G 1.65
